Residue numbers refer to the chain shown, from its start. Names may count otherwise.

Broadly, the kcat is the maximal rate divided by the concentration of active sites. As a reminder, the kcat/Km is the second-order rate constant that governs catalysis at low substrate concentration. As usually defined, the stoichiometry N is a count of units in the complex or per binding partner.

One series has as its target T1, BlsM (Streptomyces griseochromogenes, UniProt Q841K1).
T1 construct: N-terminal 6xHis tag (pET28a), E. coli BL21(DE3)
The experiment in a line: HPLC of released 5hmC, Michaelis-Menten fit. The format is biochemical. To be noted: 50 mM Tris-HCl, pH 7.2, 37 °C, 30 min. From the text: HPLC of released 5hmC, Michaelis-Menten fit on BlsM

Substrate in series [1]: Nc1nc(=O)n([C@@H]2O[C@H](COP(=O)(O)O)[C@@H](O)[C@H]2O)cc1CO
The experiment in a line: HPLC of released 5hmC, Michaelis-Menten fit. The class given is biochemical, Streptomyces rimofaciens. The settings on record: 50 mM Tris-HCl, pH 7.2, 37 °C, 30 min. From the text:
HPLC of released 5hmC, Michaelis-Menten fit on MilB

Series [2] deals with the molecule itself. The experiment in a line: SEC; size exclusion chromatography of MilB in solution (Figure S1); conditions of this run not given. On the technique in general: In gel filtration, larger molecules generally elute earlier.
Substrate in series [3]: Nc1ccn([C@@H]2O[C@H](COP(=O)(O)O)[C@@H](O)[C@H]2O)c(=O)n1
As to the kind of experiment: HPLC of released cytosine, Michaelis-Menten fit. The class given is biochemical, Streptomyces rimofaciens. To be noted: 50 mM Tris-HCl, pH 7.2, 37 °C, 30 min. From the text: HPLC of released cytosine, Michaelis-Menten fit on MilB

T1 sequence (Q841K1 entry or part of it): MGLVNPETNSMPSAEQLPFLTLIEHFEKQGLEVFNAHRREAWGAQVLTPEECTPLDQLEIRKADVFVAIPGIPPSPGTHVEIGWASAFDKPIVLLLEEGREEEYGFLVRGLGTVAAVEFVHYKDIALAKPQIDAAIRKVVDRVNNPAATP

For `Nc1nc(=O)n([C@@H]2O[C@H](COP(=O)(O)O)[C@@H](O)[C@H]2O)cc1CO` [hmCMP, 5-hydroxymethyl cytidine 5′-monophosphate], the Km on BlsM came out at 328 µM.

B1: N-glycosidase MilB, wild type (enzyme, Streptomyces remofaciens ZJU5119, UniProt B4Y381 1-170, looked up)
chain: MTTTPKPRTAPAVGSVFLGGPFRQLVDPRTGVMSSGDQNVFSRLIEHFESRGTTVYNAHRREAWGAEFLSPAEATRLDHDEIKAADVFVAFPGVPASPGTHVEIGWASGMGKPMVLLLERDEDYAFLVTGLESQANVEILRFSGTEEIVERLDGAVARVLGRAGEPTVIG
notes: MilB, N-glycosidase (CMP/hydroxymethyl CMP hydrolase) of the mildiomycin biosynthesis pathway, Streptomyces remofaciens ZJU5119; the full-length protein consists of 170 residues; residues 12-169 are seen in the crystal model; Cloned into pET28a with an N-terminal 6xHis tag; also called WT MilB; full-length MilB; source: E. coli BL21(DE3), purified (Ni-NTA, Superdex200 gel filtration)
Regarding B1, in series [1], the Km was 71.55 (11.66) μM, the kcat is 0.0531 s⁻¹ and the kcat/Km was found to be 743 M⁻¹ s⁻¹. The “stoichiometry N” value in series [2] amounted to 2.

B2: MilB (Streptomyces rimofaciens; R23M) (protein)
chain: B1 chain with R23M
notes: full-length (170 residues), N-terminal 6xHis tag (pET28a), E. coli BL21(DE3); dimer; crystal model residues 12-169 / 12-170
Take B2: in series [1], the Km is given as 86.63 (10.67) μM, the kcat came out at 0.0156 s⁻¹ and the catalytic efficiency (kcat/Km) turned out to be 180 M⁻¹ s⁻¹. In series [3], the Km is on record as 1122.00 (100) μM, the kcat was 0.0305 s⁻¹ and the catalytic efficiency (kcat/Km) came out at 27.1 M⁻¹ s⁻¹.

Source of the values: paper PMC4081090, “Structure of the N-glycosidase MilB in complex with hydroxymethyl CMP reveals its Arg23 specifically recognizes the substrate and controls its entry” (Nucleic Acids Research, 2014).
